Data taken from paper PMC4158700.
Blank lines part the entries; values can stand above or below the substance they belong to.

Columns and labels:
[1] = target: factor XIa with Arg184 replaced with Gly (fXIa-Gly184) (human) (UniProt P03951); assay: inhibition of chromogenic substrate
[2] = target: recombinant wild type factor XIa (fXIaWT) (human) (UniProt P03951); assay: inhibition of chromogenic substrate
[3] = target: factor XIa with Ile183, Arg184 and Asp185 replaced with alanine (fXIa-Ala183-185) (human) (UniProt P03951); assay: numerical fitting of full progress curves of fIX cleavage
[4] = target: factor XIa with Arg184 replaced with Gly (fXIa-Gly184) (human) (UniProt P03951); assay: as above
[5] = target: factor XIa with Ile183, Arg184 and Asp185 replaced with alanine (fXIa-Ala183-185) (human) (UniProt P03951)
[6] = target: factor XIa with Arg184 replaced with Gly (fXIa-Gly184) (human) (UniProt P03951)
[7] = target: recombinant factor XI zymogen with Arg184 replaced with Gly (fXI-Gly184) (human); assay: non-reducing SDS-PAGE
[8] = target: plasma fXIa with the active site irreversibly blocked by FPR-CMK (UniProt P03951); assay: SPR
[9] = target: recombinant wild type factor XI zymogen (fXIWT) (human); assay: non-reducing SDS-PAGE

Substance: factor IXaβ (fIXaβ), fIX cleaved at Arg145-Ala146 and Arg180-Val181 (enzyme)
- Ki [1]: 190 nM
- Ki [2]: 90 nM
- Ki [3]: 290 nM
- Ki [4]: 500 nM

Substance: recombinant wild type factor XI zymogen (fXIWT) (natural protein)
- stoichiometry N [9]: 2

Second part, the substance after the results:

- Ki1 (k-3/k3, fIXα released after the cleavage at Arg145) [3]: 6 µM
- Ki1 (k-3/k3, fIXα released after the cleavage at Arg145) [4]: 0.4 µM
- Km2 for cleavage after Arg180 (KinTek fit of progress curves) [5]: 3 µM
- Km2 for cleavage after Arg180 (KinTek fit of progress curves) [6]: 0.2 µM
Substance: factor IXα (fIXα), fIX cleaved at the Arg145-Ala146 bond (natural protein)

- stoichiometry N [7]: 2
Substance: recombinant factor XI zymogen with Arg184 replaced with Gly (fXI-Gly184) (natural protein)

- Kd [8]: 350 nM
Substance: recombinant wild type factor IX (fIXWT) (from UniProt P00740 47-461) (natural protein)
